Patent publication US20150299268A1 (UNIVERSITY OF MARYLAND BALTIMORE, published 2015)

How the values were obtained:
gp120-JR4-ScFV [1] = assay: ELISA
gp120-JR48.1-ScFV = assay: ELISA
gp120-JR4-ScFV [2] = assay: ELISA; remark: listed apart in the source
BaL-gp120 [3] = molecular target: T1, BaL-gp120 (HIV-1 BaL); assay: ELISA
T1 construct: domain: gp120; also called monomeric gp120; monomeric BaL gp120

gp120-b12-ScFV = assay: ELISA
FLSC R/T = molecular target: T2, FLSC R/T (HIV-1, UniProt P01730 26-208); assay: ELISA
T2 construct: not shown: linker of FLSC not described

BaL-gp120-K46A = molecular target: T3, BaL-gp120-K46A (HIV-1 BaL); assay: capture ELISA
T3 construct: domain: gp120

BaL-gp120-D57A = molecular target: T4, BaL-gp120-D57A (HIV-1 BaL); assay: capture ELISA
T4 construct: domain: gp120

core-D7 = core-D7 (HIV-1); assay: capture ELISA
BaL-gp120-D62A = molecular target: T5, BaL-gp120-D62A (HIV-1 BaL); assay: capture ELISA
T5 construct: domain: gp120

core-V1V2-D7 = core-V1V2-D7 (HIV-1); assay: capture ELISA
BaL-gp120-Y39A = molecular target: T6, BaL-gp120-Y39A (HIV-1 BaL); assay: capture ELISA
T6 construct: domain: gp120

BaL-gp120-P498A = molecular target: T7, BaL-gp120-P498A (HIV-1 BaL); assay: capture ELISA
T7 construct: domain: gp120

BaL-gp120-Y61A = molecular target: T8, BaL-gp120-Y61A (HIV-1 BaL); assay: capture ELISA
T8 construct: domain: gp120

BaL-gp120-E31A = molecular target: T9, BaL-gp120-E31A (HIV-1 BaL); assay: capture ELISA
T9 construct: domain: gp120

BaL-gp120-S158A = molecular target: T10, BaL-gp120-S158A (HIV-1 BaL); assay: capture ELISA
T10 construct: domain: gp120

BaL-gp120-E47A = molecular target: T11, BaL-gp120-E47A (HIV-1 BaL); assay: capture ELISA
T11 construct: domain: gp120

BaL-gp120-G495A = molecular target: T12, BaL-gp120-G495A (HIV-1 BaL); assay: capture ELISA
T12 construct: domain: gp120

BaL-gp120-D78A = molecular target: T13, BaL-gp120-D78A (HIV-1 BaL); assay: capture ELISA
T13 construct: domain: gp120

BaL-gp120-dV2 = BaL-gp120-dV2 (HIV-1 BaL); assay: capture ELISA
BaL-gp120-V68A = molecular target: T14, BaL-gp120-V68A (HIV-1 BaL); assay: capture ELISA
T14 construct: domain: gp120

BaL-gp120-T499A = molecular target: T15, BaL-gp120-T499A (HIV-1 BaL); assay: capture ELISA
T15 construct: domain: gp120

BaL-gp120-P493A = molecular target: T16, BaL-gp120-P493A (HIV-1 BaL); assay: capture ELISA
T16 construct: domain: gp120

BaL-gp120-F53A = molecular target: T17, BaL-gp120-F53A (HIV-1 BaL); assay: capture ELISA
T17 construct: domain: gp120

BaL-gp120-T303A = molecular target: T18, BaL-gp120-T303A (HIV-1 BaL); assay: capture ELISA
T18 construct: domain: gp120; glycan mutant, V3 region

BaL-gp120-R58AK59A = molecular target: T19, BaL-gp120-R58AK59A (HIV-1 BaL); assay: capture ELISA
T19 construct: domain: gp120

BaL-gp120-dV3 = BaL-gp120-dV3 (HIV-1 BaL); assay: capture ELISA
BaL-gp120 [4] = molecular target: T1, BaL-gp120; assay: capture ELISA
BaL-gp120-T455A = molecular target: T20, BaL-gp120-T455A (HIV-1 BaL); assay: capture ELISA
T20 construct: domain: gp120

BaL-gp120-V75A = molecular target: T21, BaL-gp120-V75A (HIV-1 BaL); assay: capture ELISA
T21 construct: domain: gp120

core-V3-D7 = core-V3-D7 (HIV-1); assay: capture ELISA
BaL-gp120-W45A = molecular target: T22, BaL-gp120-W45A (HIV-1 BaL); assay: capture ELISA
T22 construct: domain: gp120

BaL-gp120-E106AD107A = molecular target: T23, BaL-gp120-E106AD107A (HIV-1 BaL); assay: capture ELISA
T23 construct: domain: gp120

BaL-gp120-R476A = molecular target: T24, BaL-gp120-R476A (HIV-1 BaL); assay: capture ELISA
T24 construct: domain: gp120

BaL-gp120-I423A = molecular target: T25, BaL-gp120-I423A (HIV-1 BaL); assay: capture ELISA
T25 construct: domain: gp120

BaL-gp120-S200A = molecular target: T26, BaL-gp120-S200A (HIV-1 BaL); assay: capture ELISA
T26 construct: domain: gp120; also called 5200A

BaL-gp120-K33A = molecular target: T27, BaL-gp120-K33A (HIV-1 BaL); assay: capture ELISA
T27 construct: domain: gp120

BaL-gp120-D57AD78A = molecular target: T28, BaL-gp120-D57AD78A (HIV-1 BaL); assay: capture ELISA
T28 construct: domain: gp120

BaL-gp120-I420R = molecular target: T29, BaL-gp120-I420R (HIV-1 BaL); assay: capture ELISA
T29 construct: domain: gp120; also called -1420R

BaL-gp120-T162A = molecular target: T30, BaL-gp120-T162A (HIV-1 BaL); assay: capture ELISA
T30 construct: domain: gp120; glycan mutant

BaL-gp120-V496A = molecular target: T31, BaL-gp120-V496A (HIV-1 BaL); assay: capture ELISA
T31 construct: domain: gp120

BaL-gp120-dV1 = BaL-gp120-dV1 (HIV-1 BaL); assay: capture ELISA
BaL-gp120-I491A = molecular target: T32, BaL-gp120-I491A (HIV-1 BaL); assay: capture ELISA
T32 construct: domain: gp120

BaL-gp120-E32A = molecular target: T33, BaL-gp120-E32A (HIV-1 BaL); assay: capture ELISA
T33 construct: domain: gp120

BaL-gp120-E492A = molecular target: T34, BaL-gp120-E492A (HIV-1 BaL); assay: capture ELISA
T34 construct: domain: gp120

BaL-gp120-K500A = molecular target: T35, BaL-gp120-K500A (HIV-1 BaL); assay: capture ELISA
T35 construct: domain: gp120

BaL-gp120-V44A = molecular target: T36, BaL-gp120-V44A (HIV-1 BaL); assay: capture ELISA
T36 construct: domain: gp120

BaL-gp120-L494A = molecular target: T37, BaL-gp120-L494A (HIV-1 BaL); assay: capture ELISA
T37 construct: domain: gp120

BaL-gp120-E47AE91A = molecular target: T38, BaL-gp120-E47AE91A (HIV-1 BaL); assay: capture ELISA
T38 construct: domain: gp120

BaL-gp120-D57AD62A = molecular target: T39, BaL-gp120-D57AD62A (HIV-1 BaL); assay: capture ELISA
T39 construct: domain: gp120

BaL-gp120-H105A = molecular target: T40, BaL-gp120-H105A (HIV-1 BaL); assay: capture ELISA
T40 construct: domain: gp120

BaL-gp120-Y40A = molecular target: T41, BaL-gp120-Y40A (HIV-1 BaL); assay: capture ELISA
T41 construct: domain: gp120

BaL-gp120-P76A = molecular target: T42, BaL-gp120-P76A (HIV-1 BaL); assay: capture ELISA
T42 construct: domain: gp120

BaL-gp120-K487AK490A = molecular target: T43, BaL-gp120-K487AK490A (HIV-1 BaL); assay: capture ELISA
T43 construct: domain: gp120

BaL-gp120-W69A = molecular target: T44, BaL-gp120-W69A (HIV-1 BaL); assay: capture ELISA
T44 construct: domain: gp120

BaL-gp120-mV3 = BaL-gp120-mV3 (HIV-1 BaL); assay: capture ELISA
BaL-gp120-W35A = molecular target: T45, BaL-gp120-W35A (HIV-1 BaL); assay: capture ELISA
T45 construct: domain: gp120

BaL-gp120-R476AR480A = molecular target: T46, BaL-gp120-R476AR480A (HIV-1 BaL); assay: capture ELISA
T46 construct: domain: gp120

B1: JR4 (antibody, V domains shown)
VH: EVQLVESGPGLVKPLETLSLTCAVPGGSIRRNYWSWIRQPPGKGLEWIGHSYGSGGSTNYNPSLESRVTLSVDTSKNLFSLKLTSVTAADTAVYYCARTVWYYTSGTHYFDHWGQGVLVTVSS
VL: QSVLTQPPSVSAAPGQKVTISCSGSSSNIGRSYVSWYQQVPGAAPKLLIYDTNKRPSGVSDRFSGSKSGSSASLAITGLQTGDEADYYCGAWDGSLNVHIFGSGTKLTVL
binding result (gp120-JR4-ScFV [1]): no binding (tested: >100 fold of the Ab needed on gp120)
Fold of Ab needed for ELISA binding OD equal to half max on gp120 (gp120-JR48.1-ScFV): 0.21 fold
Fold of Ab needed for ELISA binding OD equal to half max on gp120 (gp120-JR4-ScFV [2]): > 100 fold
Fold of Ab needed for ELISA binding OD equal to half max on gp120 (BaL-gp120 [3]): 1 fold
Fold of Ab needed for ELISA binding OD equal to half max on gp120 (gp120-b12-ScFV): 0.09 fold
Fold of Ab needed for ELISA binding OD equal to half max on gp120 (FLSC R/T): 0.11 fold

B2: b12 (antibody, V domains shown)
VH: QVQLVQSGAEVKKPGASVKVSCQASGYRFSNFVIHWVRQAPGQRFEWMGWINPYNGNKEFSAKFQDRVTFTADTSANTAYMELRSLRSADTAVYYCARVGPYSWDDSPQDNYYMDVWGKGTTVIVSS
VL: EIVLTQSPGTLSLSPGERATFSCRSSHSIRSRRVAWYQHKPGQAPRLVIHGVSNRASGISDRFSGSGSGTDFTLTITRVEPEDFALYYCQVYGASSYTFGQGTKLERK
% Binding (BaL-gp120-K46A): 93%
% Binding (BaL-gp120-D57A): 95%
% Binding (core-D7): 106%
% Binding (BaL-gp120-D62A): 98%
% Binding (core-V1V2-D7): 103%
% Binding (BaL-gp120-Y39A): 90%
% Binding (BaL-gp120-P498A): 97%
% Binding (BaL-gp120-Y61A): 85%
% Binding (BaL-gp120-E31A): 86%
% Binding (BaL-gp120-S158A): 80%
% Binding (BaL-gp120-E47A): 100%
% Binding (BaL-gp120-G495A): 90%
% Binding (BaL-gp120-D78A): 92%
% Binding (BaL-gp120-dV2): 87%
% Binding (BaL-gp120-V68A): 83%
% Binding (BaL-gp120-T499A): 107%
% Binding (BaL-gp120-P493A): 95%
% Binding (BaL-gp120-F53A): 91%
% Binding (BaL-gp120-T303A): 92%
% Binding (BaL-gp120-R58AK59A): 101%
% Binding (BaL-gp120-dV3): 109%
% Binding (BaL-gp120 [4]): 100%
% Binding (BaL-gp120-T455A): 90%
% Binding (BaL-gp120-V75A): 93%
% Binding (core-V3-D7): 102%
% Binding (BaL-gp120-W45A): 96%
% Binding (BaL-gp120-E106AD107A): 80%
% Binding (BaL-gp120-R476A): 101%
% Binding (BaL-gp120-I423A): 96%
% Binding (BaL-gp120-S200A): 86%
% Binding (BaL-gp120-K33A): 89%
% Binding (BaL-gp120-D57AD78A): 96%
% Binding (BaL-gp120-I420R): 101%
% Binding (BaL-gp120-T162A): 110%
% Binding (BaL-gp120-V496A): 100%
% Binding (BaL-gp120-dV1): 90%
% Binding (BaL-gp120-I491A): 98%
% Binding (BaL-gp120-E32A): 104%
% Binding (BaL-gp120-E492A): 105%
% Binding (BaL-gp120-K500A): 93%
% Binding (BaL-gp120-V44A): 94%
% Binding (BaL-gp120-L494A): 95%
% Binding (BaL-gp120-E47AE91A): 86%
% Binding (BaL-gp120-D57AD62A): 103%
% Binding (BaL-gp120-H105A): 100%
% Binding (BaL-gp120-Y40A): 106%
% Binding (BaL-gp120-P76A): 96%
% Binding (BaL-gp120-K487AK490A): 85%
% Binding (BaL-gp120-W69A): 97%
% Binding (BaL-gp120-mV3): 100%
% Binding (BaL-gp120-W35A): 107%
% Binding (BaL-gp120-R476AR480A): 68%
